Assay results taken from patent US20040030097A1, “Peptide mimetics” (priority 2000, published 2004).
One block for each substance: values may come before it.

Columns and labels:
cell proliferation = details: EPO, read-out: EC50 (concentration for half maximal response); cited from earlier work
[1] = target: T1, IL-4Rα (recombinant extracellular domain of the receptor α-chain [C182A,Q206C]-IL4-BP) (Homo sapiens, UniProt P24394, C207A/Q231C); assay: Surface plasmon resonance binding assay (BIAcore 2000) with immobilized IL-4Rα; details: 25° C., HBS buffer, physiological salt concentration
T1 construct: A recombinant extracellular domain of the receptor α-chain [C182A,Q206C]-IL4-BP was immobilized
Protocol: The binding affinities of the designed peptide mimetics were measured by surface plasmon resonance using a BIAcore 2000 (Pharmacia Biosensor AB). A recombinant extracellular domain of the receptor α-chain [C182A,Q206C]-IL4-BP was immobilized at a biosensor CM5 to a density of 1500 to 2000 pg/mm^2, as described by Shen et al. (Shen et al., 1996). Ligand binding was analyzed at 25° C. by perfusion with HBS buffer (10 mM Hepes, pH 7.4/150 mM NaCl/3.4 mM EDTA/0.005% surfactant P20) at a flow rate of 50 μl/min.

HeLa cells = assay: Toxicity experiments with HeLa cells; assay type: cell-based
[2] = Far UV circular dichroism, helical content; assay type: physicochemical; details: far UV CD, 278 K, 15 μM peptide, from ellipticity at 222 nm
Protocol: The far UV CD spectra of the peptide was recorded, on a Jasco-710 instrument, at 278 K, in a cuvette with a 2 mm path. Measurements were made every 0.1 nm, with a response time of 2 s and a bandwidth of 1 nm, at a scan speed of 50 nm/min. The spectra shown in the text represent an average over 20 scans. The peptide concentration, calculated from the absorbance at 280 nm (Pace et al., 1995) was 15 μM. The helical percentage was calculated from the mean residue ellipticity at 222 nm, taking into account the peptide length (Chen et al., 1974), according to the following:
where n is the number of residues in the peptide and θ^obs222 nm is the ellipticity of the peptide at 222 nm. The CD experiments were carried out using the same buffer conditions as in the surface plasmon resonance assays.
(§1) A helical content of 34% was calculated as described above was. […] (FIG. 5).

[3] = Temperature denaturation monitored by CD at 222 nm; assay type: physicochemical
Protocol: The thermal denaturation was measured by monitoring the change in signal at 222 nm over a temperature range of 5-80° C., in a cuvette with a 2 mm path. Measurements were made in 0.5 degrees increments, with a response time of 2 s and a bandwidth of 1 nm, at a temperature slope of 50° C./h. The peptide concentration calculated from the absorbance at 280 nm was 15 μM (Pace et al., 1995).
as §1

T1 sequence (P24394 26-232 C207A/Q231C): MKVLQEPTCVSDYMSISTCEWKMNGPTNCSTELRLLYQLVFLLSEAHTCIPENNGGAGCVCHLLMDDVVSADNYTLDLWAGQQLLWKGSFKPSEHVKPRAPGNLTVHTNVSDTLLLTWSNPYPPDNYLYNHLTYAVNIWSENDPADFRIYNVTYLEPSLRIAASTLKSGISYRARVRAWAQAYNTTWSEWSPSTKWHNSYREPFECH

Substance: EPO: cytokine erythropoietin
EC50 (cell proliferation): 0.02 nM

Kd [1]: 40 µM
Substance: solup10: 45-residue ROP-derived mini-protein containing the IL-4 binding site: MGTDIQRYERAQTLALLEKLNELDADKQADRLRKRLARNDWLFGS
toxicity to mammalian cells in combination with IL-4 (HeLa cells; in combination with IL-4 at concentrations of up to 500 μM): non-toxic
concentration up to which non-toxic to mammalian cells (HeLa cells; solup10 alone): ≥ 500 µM
helical content [2]: 34%
reversibility of temperature-induced denaturation ([3]; 5-80° C., CD signal recovered upon cooling from 80 to 5° C.): reversible process
loss of helical content at assay temperature ([3]; 25° C.): lost half of its helical content
